Reference: patent US11162087B2, “Beta-glucosidase, enzyme composition including same, and method for manufacturing sugar solution using same” (RIKEN, priority 2017, dated 2021)

B1: Mutant 1: His-tagged polypeptide of SEQ ID NO: 6, 88% identity with SEQ ID NO: 1; tested as cell-free extract of transformed E. coli (protein)
chain: QIEGLINVMTLEEKVGQMAQLAIDLFIDVPTDTVIPEAARKGIIDYKIGSILNTYGGVSHSKEVWTYINAEFYKYTEETDLKIPILYGLDSIHGANFVNNFTSFPQQIGMAATFNPSLLKEGSRISAYETRAASVGWVFSPVMDLGLDPRWPRIWEGFGEDPYLSSQFGIASVHGFQGKDPNLIDEFHVAACAKHYLAYSNPFTGKDRTPAILSDIFIREYHLPSFKAAVDAGVASVMVNSGLINGIPTHMNHYLLTTVLKEELGFQGVIVTDWQDIENIHTRDHLAPTQKDAVKLAINAGIDMSMIPYNYDFIDYLIELVHEGEVSIDRINDAVRRILKMKAKMNLWDLPVTKSEDYPEFGSEAHANASYTAASESITLLKNENSTLPLAKNTKVLVVGPNSNSHRSLNGGWSYSWQGNAGVQYAVQYNTIYQAIQKVNGEENTVFSQGVRYIETGNYYEDEEVNISESVALARDVDYIILALGENTYTEKPGDLSDLEISQNQIDLAKALASTGKPIILVLNQGRPRIISRIEQLVSAILWIYWPGNYGGDALADILFGDVNPSGKLPVTYPRYSASLNTRIVSGGSDSFSEGLFIDYKHFDDANITPRYEFGYGLSYTKFNYSRLSVLSTAKSGPATGAVVPGGPSDLFQNVATVTVDIANSGQVTGAEVAQLYITYPSSAPRTPPKQLRGFAKLNLTPGQSGTATFNIRRRDLSYWDTASQKWVVPSGSFGISVGASSRDIRLTSTLSVA
modifications: His tag; amino acid sequence having 88% sequence identity with amino acid sequence of SEQ ID NO 1
notes: tested as cell-free extract of transformed E. coli
B2: Comparative Example 1: β-glucosidase derived from the genus Aspergillus filamentous fungus: Aspergillus β-glucosidase (SEQ ID NO: 10) expressed in Trichoderma reesei; measured as enzyme composition … (protein, listed as Aspergillus aculeatus)
chain: DELAFSPPFYPSPWANGQGEWAEAYQRAVAIVSQMTLDEKVNLTTGTGWELEKCVGQTGGVPRLNIGGMCLQDSPLGIRDSDYNSAFPAGVNVAATWDKNLAYLRGQAMGQEFSDKGIDVQLGPAAGPLGRSPDGGRNWEGFSPDPALTGVLFAETIKGIQDAGVVATAKHYILNEQEHFRQVAEAAGYGFNISDTISSNVDDKTIHEMYLWPFADAVRAGVGAIMCSYNQINNSYGCQNSYTLNKLLKAELGFQGFVMSDWGAHHSGVGSALAGLDMSMPGDITFDSATSFWGTNLTIAVLNGTVPQWRVDDMAVRIMAAYYKVGRDRLYQPPNFSSWTRDEYGFKYFYPQEGPYEKVNHFVNVQRNHSEVIRKLGADSTVLLKNNNALPLTGKERKVAILGEDAGSNSYGANGCSDRGCDNGTLAMAWGSGTAEFPYLVTPEQAIQAEVLKHKGSVYAITDNWALSQVETLAKQASVSLVFVNSDAGEGYISVDGNEGDRNNLTLWKNGDNLIKAAANNCNNTIVVIHSVGPVLVDEWYDHPNVTAILWAGLPGQESGNSLADVLYGRVNPGAKSPFTWGKTREAYGDYLVRELNNGNGAPQDDFSEGVFIDYRGFDKRNETPIYEFGHGLSYTTFNYSGLHIQVLNASSNAQVATETGAAPTFGQVGNASDYVYPEGLTRISKFIYPWLNSTDLKASSGDPYYGVDTAEHVPEGATDGSPQPVLPAGGGSGGNPRLYDELIRVSVTVKNTGRVAGDAVPQLYVSLGGPNEPKVVLRKFDRLTLKPSEETVWTTTLTRRDLSNWDVAAQDWVITSYPKKVHVGSSSRQLPLHAALPKVQ
notes: measured as enzyme composition with Trichoderma cellulase
B3: partially purified β-glucosidase: His-tag purified elution fraction of SEQ ID NO: 1 β-glucosidase from E. coli cell-free extract, buffer exchanged (Example 7) (protein, listed as Pseudotrichonympha grassii)
chain: QIEGLINVMTLEEKVGQMAQLAIDLFIDVPTDTVIPEAARKGIIDYKIGSILNTYGGVSHSKEVWTYINAEFYKYTEETDLKIPILYGLDSIHGANFVNNFTSFPQQIGMAATFNPSLLKEGSRISAYETRAASVGWVFSPVMDLGLDPRWPRIWEGFGEDPYLSSQFGIASVHGFQGKDPNLIDEFHVAACAKHYLAYSNPFTGKDRTPAILSDIFIREYHLPSFKAAVDAGVASVMVNSGLINGIPTHMNHYLLTTVLKEELGFQGVIVTDWQDIENIHTRDHLAPTQKDAVKLAINAGIDMSMIPYNYDFIDYLIELVHEGEVSIDRINDAVRRILKMKAKMNLWDLPVTKSEDYPEFGSEAHANASYTAASESITLLKNENSTLPLAKNTKVLVVGPNSNSHRSLNGGWSYSWQGNAGVQYAVQYNTIYQAIQKVNGEENTVFSQGVRYIETGNYYEDEEVNISESVALARDVDYIILALGENTYTEKPGDLSDLEISQNQIDLAKALASTGKPIILVLNQGRPRIISRIEQLVSAILWIYWPGNYGGDALADILFGDVNPSGKLPVTYPRYSASLITYWHKYAEEQVGQPGAYDYSSDYNPLWEFGYGLSYTTFNYSNLSVPSTSGMRDVIPVSVLVKNTGEVAGKEVVLLFTSDLYASLAPDVKRLRKFTKILLQPGEEQLVSFNLTSSDLSFIDAQSRRVTETGDFEIKIGGLKGKVTLT
modifications: His-tag
B4: β-glucosidase of the present invention (SEQ ID NO: 1): Polypeptide of SEQ ID NO: 1 from Pseudotrichonympha grassii; in Tables 12/13 measured as the Example 10 composition with Trichoderma cellulase (protein, listed as Pseudotrichonympha grassii)
chain: B3 chain

Key:
[1] = Inhibitory action of glucose on the β-glucosidase activity; type: biochemical; details: 1 mM pNP-Glc, 30° C., 100 minutes
Text: The β-glucosidase derived from a protist of the genus Pseudotrichonympha of the present invention is preferably less likely to suffer from inhibition by glucose on the 3-glucosidase activity. Specifically, when the β-glucosidase activity in the absence of glucose is taken unity, the β-glucosidase activity under a condition of a glucose concentration of 8 g/L (or in the presence of 8 g/L glucose) is preferably 0.5 or more, more preferably 0.6 or more, more preferably 0.7 or more, more preferably 0.8 or more, more preferably 0.9 or more, more preferably 1.0 or more, more preferably 1.1 or more, more preferably 1.2 or more, more preferably 1.3 or more, and in particular preferably 1.4 or more. Further, in addition to the β-glucosidase activity under the condition of the glucose concentration of 8 g/L, when the β-glucosidase activity in the absence of glucose is taken as unity, the β-glucosidase activity under a condition of a glucose concentration of 20 g/L (or in the presence of 20 g/L glucose) is preferably 0.5 or more, more preferably 0.6 or more, and in particular preferably 0.7 or more. The method used herein for measuring the β-glucosidase activity is the same as the above-described method except that 8 g/L or 20 g/L of glucose is added at the time of measuring; and results obtained thereby are used.
An enzyme solution was added to a mixture solution containing 1 mM p-nitrophenyl-β-glucopyranoside (manufactured by Sigma-Aldrich Japan), 50 mM acetic acid buffer and 0, 4, 8 or 20 g/L glucose such that the total amount of the reaction solution became 100 μL, causing a reaction at 30° C. for 100 minutes. Thereafter, 10 μL of 2M sodium carbonate was added and well mixed to stop the reaction, and an increase of absorbance at 405 nm was measured. The activity to release 1 μmol of p-nitrophenol per minute was defined as 1 U. For a blank, 10 μL of 2M sodium carbonate was added to an amount, equivalent to that of the above mixture solution for the reaction solution before addition of the enzyme solution, of a mixture solution containing 1 mM p-nitrophenyl-β-glucopyranoside, 50 mM sodium acetate buffer and 0, 4, 8 or 20 g/L glucose, and mixed well; and then, the enzyme solution was added such that the total solution amount of the blank became 110 μL, causing a reaction at 30° C. for 30 minutes. Thereafter, an increase of absorbance at 405 nm was measured.
In accordance with Reference Example 8, the inhibitory action of glucose on the β-glucosidase activity was measured in enzyme compositions: containing the β-glucosidase and the genus Trichoderma filamentous fungus-derived cellulase prepared in Example 10; and the cell-free extract of β-glucosidase mutant gene transformed E. coli prepared in Example 5. For a comparative control, only the genus Trichoderma filamentous fungus-derived cellulase was used, and the inhibitory action of glucose on the β-glucosidase activity was measured in the same manner. […] That is, both of the enzyme composition containing the β-glucosidase of the present invention and the genus Trichoderma filamentous fungus-derived cellulase, and the cell-free extract of β-glucosidase mutant gene transformed E. coli were less likely to suffer from inhibition on the β-glucosidase activity by glucose, compared to only the genus Trichoderma filamentous fungus-derived cellulase, and the enzyme composition of Comparative Example 1 containing the genus Aspergillus filamentous fungus-derived β-glucosidase and the genus Trichoderma filamentous fungus-derived cellulase.

[2] = β-glucosidase activity measurement with pNP-Glc; type: biochemical
Procedure: In the present invention, “β-glucosidase” means an enzyme that catalyzes a reaction for hydrolysis degradation of a sugar β-glucoside bond. In the present invention, a method for measuring a β-glucosidase activity utilizes a reaction using p-nitrophenyl-β-D-glucopyranoside (pNP-Glc) as a substrate. Specifically, an enzyme liquid is added to a substrate solution prepared by dissolving pNP-Glc in 50 mM acetic acid-sodium acetate buffer solution (pH 5.0) and reacted at 30° C. for 10 minutes; and the reaction is stopped by well mixing with 2M sodium carbonate in an amount equivalent to one-tenth of a reaction system volume to measure an increase of the absorbance at 405 nm. When p-nitrophenol is released and the absorbance at 405 nm is increased after the above reaction, it is determined that the β-glucosidase activity is present.
10 μL of an enzyme diluted solution was added to and reacted with 90 μL of 50 mM acetic acid buffer containing 1 mM p-nitrophenyl-β-glucopyranoside (manufactured by Sigma-Aldrich Japan) at 30° C. for 10 minutes. Thereafter, 10 μL of 2M sodium carbonate was added and well mixed to stop the reaction, and an increase of absorbance at 405 nm was measured. The activity to release 1 μmol of p-nitrophenol per minute was defined as 1 U. For a blank, 10 μL of 2M sodium carbonate was added to and well mixed with 90 μL of 50 mM sodium acetate buffer containing 1 mM p-nitrophenyl-β-glucopyranoside, and thereafter, 10 μL of an enzyme diluted solution was added to cause a reaction at 30° C. for 30 minutes. Thereafter, an increase of absorbance at 405 nm was measured. At this time, the enzyme liquid was diluted so as not to exceed an absorbance at 405 nm of 1. In addition, a calibration curve was created based on absorbances measured by preparing p-nitrophenol solutions at concentrations of 0.1 mM, 0.2 mM, 1 mM and 2 mM; using 10 μL of them instead of an enzyme diluted solution; and adding and well mixing 10 μL of 2M sodium carbonate for color development.

| Molecule | BGL activity (relative value) in the presence of 8 g/L glucose when BGL activity in the absence of glucose is taken as unity [1] | BGL activity (relative value) in the presence of 20 g/L glucose when BGL activity in the absence of glucose is taken as unity [1] | Increase of absorbance (405 nm) ([2]; cell-free extract, volume reduced to one-twelfth by ultrafilter membrane, detection limit 0.075) | β-glucosidase activity per 1 mg of protein ([2]; 1 mM pNP-Glc, 50 mM acetic acid buffer, 30° C., 10 minutes, 1 U = 1 μmol p-nitrophenol per minute) |
| --- | --- | --- | --- | --- |
| B1 | 0.71 | 0.70 | 0.307 |  |
| B2 | 0.46 | 0.20 |  |  |
| B3 |  |  |  | 3.50 U per 1 mg of protein |
| B4 | 1.49 | 0.94 |  |  |
